Consider 19 molecules from US20040018971A1 (published 2004).

In one assay the target is HLA-A*3301 (human). As to the kind of experiment: inhibition of 125I-labelled standard peptide binding to purified HLA, gel filtration.
The target of the next assay is HLA-A*6801 (human). Described as above.
The next assay has as its target HLA-A*3101 (human). The description is as above.
The target of assay [1] is HLA-A*1101 (human). The assay is described as above.
Assay [2] addresses HLA-A*0301 (human). The description is as above.
The target in assay [3] is T1, HLA-A*0301 (human).
T1 construct: also called HLA-A3
As to the kind of experiment: inhibition of 125I-labelled standard peptide 941.12 binding to purified HLA-A*0301, gel filtration.

In assay [4] the target is HLA-A*1101 (purified HLA class I molecule) (human). As to the kind of experiment: inhibition of 125I probe peptide binding to purified HLA; ratio to standard peptide.
The target of assay [5] is T2, HLA-A*0301 (purified HLA class I molecule) (human).
T2 construct: also called A3
As to the kind of experiment: inhibition of 125I probe peptide binding to purified HLA; ratio to standard peptide; minus sign not explained.

The target in assay [6] is T3, HLA-A*1101 (human).
T3 construct: The construct is not described
As to the kind of experiment: competition with 125I-labelled standard peptide for purified HLA, gel filtration.

Assay [7] has as its target T4, HLA-A*0301 (human).
T4 construct: also called A3
Described as above.

Another assay deals with T5, HLA-DRB1*0101 (human).
T5 construct: also called DR1
Kind of assay: competition with 125I probe peptide, purified HLA.

For the molecule NVKIPVAIK (Synthetic A3 supermotif peptide) [HER2/neu peptide, position 745, 9 amino acids], the relative binding ratio with HLA-A*3301 was 0.082 ratio (IC50 of standard peptide / IC50 of test peptide); with HLA-A*6801 it was 0.12 ratio (IC50 of standard peptide / IC50 of test peptide); with HLA-A*3101 it was 0.0015 ratio (IC50 of standard peptide / IC50 of test peptide); with HLA-A*1101 [1], 0.0007 ratio (IC50 of standard peptide / IC50 of test peptide); with HLA-A*0301 [2], 0.0058 ratio (IC50 of standard peptide / IC50 of test peptide).

QVRQVPLQR [HER2/neu peptide, position 90, 9 amino acids]: the “relative binding ratio (IC50 of standard peptide / IC50 of test peptide)” value with HLA-A*0301 [3] stood at 0.0029 ratio.

Regarding FSRMARDPQR (also called Her2/neu.976 (10-mer)) [HER2/neu peptide, position 976, 10 amino acids], the relative binding ratio is 0.001 ratio (IC50 standard / IC50 test) in assay [4] and -0.0002 ratio (IC50 standard / IC50 test) in assay [5].

B1: HER2/neu peptide, position 129, 10 amino acids (peptide)
peptide: VTGASPGGLR
notes: Synthetic peptide; also called Her2/neu.129 (10-mer)
Take B1: the relative binding ratio is 0.0005 ratio (IC50 of standard peptide / IC50 of test peptide) in the assay with HLA-A*1101 [6] and 0.0002 ratio (IC50 of standard peptide / IC50 of test peptide) with HLA-A*0301 [7].

Turning to GMSYLEDVR (also called Her2/neu.832 (9-mer)) [HER2/neu peptide, position 832, 9 amino acids], the values for the relative binding ratio in assay [4] and in assay [5] were 0.0002 ratio (IC50 standard / IC50 test) and -0.0002 ratio (IC50 standard / IC50 test), respectively.

As for RLVHRDLAAR (Synthetic A3 supermotif peptide) [HER2/neu peptide, position 840, 10 amino acids], the relative binding ratio was 0.0021 ratio (IC50 of standard peptide / IC50 of test peptide) with HLA-A*3301; 0.0036 ratio (IC50 of standard peptide / IC50 of test peptide) with HLA-A*6801; 0.95 ratio (IC50 of standard peptide / IC50 of test peptide) with HLA-A*3101; 0.0001 ratio (IC50 of standard peptide / IC50 of test peptide) in the assay with HLA-A*1101 [1]; 0.18 ratio (IC50 of standard peptide / IC50 of test peptide) with HLA-A*0301 [2].

By IC50 is commonly meant the point on the concentration scale where inhibition reaches its midpoint. Higher therefore signals lower potency. Take ITDFGLARLLDIDET [Her2/neu.861]: in the assay with HLA-DRB1*0101, the IC50 came out at 1040 nM.

Regarding GAGGMVHHR (also called Her2/neu.1038 (9-mer)) [HER2/neu peptide, position 1038, 9 amino acids], the relative binding ratio in [4] was 0.0043 ratio (IC50 standard / IC50 test); in assay [5] it was -0.0002 ratio (IC50 standard / IC50 test).

For PLPSETDGY [HER2/neu peptide, position 1119, 9 amino acids], in the assay with HLA-A*0301 [3], the “relative binding ratio (IC50 of standard peptide / IC50 of test peptide)” value was determined as 0.0002 ratio.

Take LTSIISAVVGILLVV [Her2/neu.651]: the IC50 with HLA-DRB1*0101 was 26 nM.

Turning to SVFQNLQVIR (Synthetic A3 supermotif peptide) [HER2/neu peptide, position 423, 10 amino acids], the relative binding ratio in the assay with HLA-A*3301 is 0.039 ratio (IC50 of standard peptide / IC50 of test peptide); with HLA-A*6801, 0.25 ratio (IC50 of standard peptide / IC50 of test peptide); in the assay with HLA-A*3101, 0.034 ratio (IC50 of standard peptide / IC50 of test peptide); in the assay with HLA-A*1101 [1] it was 0.075 ratio (IC50 of standard peptide / IC50 of test peptide); in the assay with HLA-A*0301 [2] it was 0.017 ratio (IC50 of standard peptide / IC50 of test peptide).

B2: HER2/neu peptide, position 888, 10 amino acids (peptide)
peptide: WMALESILRR
notes: Synthetic peptide; also called Her2/neu.888 (10-mer)
As to B2, the relative binding ratio in the assay with HLA-A*1101 [6] is 0.0016 ratio (IC50 of standard peptide / IC50 of test peptide); with HLA-A*0301 [7], 0.0085 ratio (IC50 of standard peptide / IC50 of test peptide).

B3: Her2/neu.166 (10 amino acids) (peptide)
peptide: TILWKDIFHK
notes: Synthetic A3 supermotif peptide; also called HER2/neu peptide, position 166, 10 amino acids
For B3, the relative binding ratio in the assay with HLA-A*3301 is 0.042 ratio (IC50 of standard peptide / IC50 of test peptide); in the assay with HLA-A*6801, 0.04 ratio (IC50 of standard peptide / IC50 of test peptide); with HLA-A*3101 it was 0.037 ratio (IC50 of standard peptide / IC50 of test peptide); with HLA-A*1101 [1] it was 3.6 ratio (IC50 of standard peptide / IC50 of test peptide); in the assay with HLA-A*0301 [2] it was 0.043 ratio (IC50 of standard peptide / IC50 of test peptide).

As for VLVKSPNHVK (Synthetic A3 supermotif peptide) [HER2/neu peptide, position 851, 10 amino acids], the relative binding ratio was 0.0032 ratio (IC50 of standard peptide / IC50 of test peptide) with HLA-A*3301; 0.0005 ratio (IC50 of standard peptide / IC50 of test peptide) with HLA-A*6801; 0.0052 ratio (IC50 of standard peptide / IC50 of test peptide) in the assay with HLA-A*3101; 0.0072 ratio (IC50 of standard peptide / IC50 of test peptide) with HLA-A*1101 [1]; 0.082 ratio (IC50 of standard peptide / IC50 of test peptide) with HLA-A*0301 [2].

B4: HER2/neu peptide, position 973, 9 amino acids (peptide)
peptide: VSEFSRMAR
notes: Synthetic peptide; also called Her2/neu.973 (9-mer)
For the molecule B4, the relative binding ratio with HLA-A*1101 [6] was 0.0021 ratio (IC50 of standard peptide / IC50 of test peptide); with HLA-A*0301 [7], -0.0002 ratio (IC50 of standard peptide / IC50 of test peptide).

Take PSGVKPDLSY [HER2/neu peptide, position 601, 10 amino acids]: the “relative binding ratio (IC50 of standard peptide / IC50 of test peptide)” value with HLA-A*0301 [3] worked out at 0.0003 ratio.

Regarding ETELVEPLTPSGAMP [Her2/neu.693], in the assay with HLA-DRB1*0101, the concentration for half-maximal inhibition (IC50) is 833 nM.

B5: HER2/neu peptide, position 835, 10 amino acids (peptide)
peptide: YLEDVRLVHR
notes: Synthetic peptide; also called Her2/neu.835 (10-mer)
For the molecule B5, the relative binding ratio with HLA-A*1101 [6] was 0.0001 ratio (IC50 of standard peptide / IC50 of test peptide); with HLA-A*0301 [7] it was 0.0003 ratio (IC50 of standard peptide / IC50 of test peptide).

With QLVTQLMPY [HER2/neu peptide, position 795, 9 amino acids], the “relative binding ratio (IC50 of standard peptide / IC50 of test peptide)” value with HLA-A*0301 [3] was 0.011 ratio.
